Some results are limits rather than exact numbers.

Common to all, as to experiment: cell-based or functional assay
The target in assay [1] is Envelope protein of control pseudovirus MuLV (MuLV).
Assay [2] concerns the target HIV-1 JR-FL Env E168K, on pseudovirus (HIV-1 isolate JR-FL (clade B)).
Assay [3] concerns the target HIV-1 ADA envelope glycoprotein (Env), on pseudovirus (HIV-1 isolate ADA).
Assay [4] has as its target HIV-1 Env of pseudovirus DU156 (HIV-1).
In assay [5] the target is HIV-1 Env of pseudovirus PVO.4 (HIV-1).
For assay [6], the target named is HIV-1 Env of pseudovirus CAAN (HIV-1).
The target in assay [7] is HIV-1 Env of pseudovirus DU422 (HIV-1).
Assay [8] addresses HIV-1 Env of pseudovirus CAP45 (HIV-1).
Assay [9] deals with HIV-1 Env of pseudovirus THRO.18 (HIV-1).
For assay [10], the target named is HIV-1 Env of pseudovirus ZM233 (HIV-1).
For assay [11], the target named is HIV-1 Env of pseudovirus AC10 (HIV-1).
For assay [12], the target named is HIV-1 Env of pseudovirus ZM214 (HIV-1).
Assay [13] deals with HIV-1 Env of pseudovirus REJ04541 (HIV-1).
The target of assay [14] is HIV-1 Env of pseudovirus ZM249 (HIV-1).
Assay [15] addresses HIV-1 92RW020 envelope glycoprotein (Env), on pseudovirus (HIV-1 isolate 92RW020 (clade A)).
Assay [16] deals with HIV-1 Env of pseudovirus TR0.11 (HIV-1).
For assay [17], the target named is HIV-1 Env of pseudovirus Du172 (HIV-1).

B1: 1489_I13 (PG16) (TCN-120) (antibody, V domains shown)
VH: QEQLLESGGGVVQPGGSLRLSCLASGFTFHKYGMHWVRQAPGKGLEWVALISDDGMRKYHSNSMWGRVTISRDNSKNTLYLQFSSLKVEDTAMFFCAREAGGPIWHDDVKYYDFNDGYYNYHYMDVWGKGTTVTVSS
VL: QSALTQPASVSGSPGQTITISCNGTSSDVGGFDSVSWYQQSPGKAPKVMVFDVSHRPSGISNRFSGSKSGNTASLTISGLHIEDEGDYFCSSLTDRSHRIFGGGTKVTVLG
On to B1, for which the IC50, pseudovirus neutralization (TZM-bl assay), control virus in assay [1] was greater than 25 µg/mL. The figures for the IC50 (ug/ml), pseudovirus neutralization, TZM-bl assay in [2], in [3] and in [15] were 0.005 µg/mL, 0.008 µg/mL and 0.03 µg/mL, respectively. Besides, the IC50, pseudovirus neutralization (TZM-bl assay) in [4] is less than 0.01 µg/mL; in assay [5], 20.6 µg/mL; in assay [6], 24.9 µg/mL; in assay [7] it was 1.87 µg/mL; in [8] it was less than 0.01 µg/mL; in [9], 7.41 µg/mL. In addition, the IC50, pseudovirus neutralization (TZM-bl assay) in assay [10] was less than 0.01 µg/mL; in assay [11], less than 0.01 µg/mL; in assay [12], greater than 25 µg/mL; in [13], 0.34 µg/mL; in assay [14], less than 0.01 µg/mL; in assay [16], 10.9 µg/mL. The same molecule returned an IC50, pseudovirus neutralization (TZM-bl assay) in [17] of less than 0.01 µg/mL.
